Assay type in all cases: biochemical
A short description of data set [1]: HTP-analysis of yeast culture supernatants, no challenge (MUGal hydrolysis). The settings on record: activity of the variant/activity of Rd3BB (SEQ ID NO: 13). A digest of the protocol: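 GLA variants were expressed in INVSc1 yeast grown in SD-Ura broth with glucose at 30° C., and culture supernatants were collected after 66-84 h. Supernatant was mixed with McIlvaine buffer pH 4.8 and MUGal (2 mM stock) in 50 mM citrate, 200 mM KCl, pH 4.6, incubated at 37° C. for 30-180 minutes, then quenched with sodium carbonate.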

A short description of data set [2]: HTP-analysis of supernatants pretreated with base (MUGal hydrolysis). The settings on record: activity of the variant/activity of Rd3BB (SEQ ID NO: 13); challenge at pH 9.7. The procedure, abridged:
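GLA variants were secreted by transformed INVSc1 yeast grown 66-84 h at 30° C. Supernatants were exposed to neutral-to-basic buffers (pH 7.0-9.7) at 37° C for 1-18 h, then assayed with MUGal in acidic citrate/McIlvaine buffer, with fluorescence read after quenching.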

The nature of data set [3]: HTP-analysis of supernatants pretreated with acid (MUGal hydrolysis). The settings on record: activity of the variant/activity of Rd3BB (SEQ ID NO: 13); challenge at pH 3.7. A digest of the protocol: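 Fluorescence of MUGal hydrolysis (Ex. 355 nm, Em. 448 nm) is read after sodium carbonate quench. The enzyme source is INVSc1 yeast culture supernatant, first exposed to pH 3.3-4.3 McIlvaine buffer at 37° C. for 1-3 h, then reacted at pH 4.8 for 30-180 minutes.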

B1: 538 (protein)
chain: LDNGLARTPTMGWLHWERFMCNLDCQEEPDSCISEKLFMEMAERMVSEGWKDAGYEYLCIDDCWMAPQRDSEGRLQADPQRFPHGIRQLANHVHSKGLKLGIYADVGNKTCAGFPGSFGYYDIDAQTFADWGVDLLKFDGCYCDSLENLADGYKHMSLALNRTGRSIVYSCEWPLYMWPFQKPNYTEIRQYCNHWRNFADIDDSWASIKSILDWTSRNQERIVDVAGPGGWNDPDMLVIGNFGLSWDQQVTQMALWAIMAAPLFMSNDLRHISPQAKALLQDKDVICINQDPLGKQGYQLRKGDNFEVWERPLSGDAWAVAIINRQEIGGPRSYTIPVASLGKGVACNPACFITQLLPVKRQLGFYNWTSRLKSHINPTGTVLLQLENTMQMSLKDLL
modifications: Synthetic Polypeptide sequence of Variant No. 538 of mature Human GLA
Turning to B1, the “Relative Activity of GLA Variants After No Challenge (NC)” value in data set [1] was “+ (+ = 1.5 to 5 relative activity over Rd3BB (SEQ ID NO: 13))”. In addition, the “Relative Activity of GLA Variants After Challenge at pH 9.7” value (“Relative Activity … at pH 9.7” for short) in data set [2] is “+ (+ = 1.5 to 5 relative activity over Rd3BB (SEQ ID NO: 13))”. Besides, the “Relative Activity of GLA Variants After Challenge at pH 3.7” value (shortened to “Relative Activity … at pH 3.7”) in data set [3] is recorded as “+ (+ = 1.5 to 5 relative activity over Rd3BB (SEQ ID NO: 13))”.

B2: 540 (protein)
chain: LDNGLARTPTMGWLHWERFMCNLDCQEEPDSCISEKLFMEMAERMVSEGWKDAGYEYLCIDDCWMAPQRDSEGRLQADPQRFPHGIRQLANHVHSKGLKLGIYADVGNKTCAGFPGSFGYYDIDAQTFADWGVDLLKFDGCYCDSLENLADGYKHMSLALNRTGRSIVYSCEWPLYMWPFQKPNYTEIRQYCNHWRNFADIDDSWASIKSILDWTSRNQERIVDVAGPGGWNDPDMLVIGNFGLSWDQQVTQMALWAIMAAPLFMSNDLRHISPQAKALLQDKDVIMINQDPLGKQGYQLRKGDNFEVWERPLSGDAWAVAIINRQEIGGPRSYTIPVASLGKGVACNPACFITQLLPVKRQLGFYNWTSRLKSHINPTGTVLLQLENTMQMSLKDLL
modifications: Synthetic Polypeptide sequence of Variant No. 540 of mature Human GLA
In the case of B2, the “Relative Activity of GLA Variants After No Challenge (NC)” value in data set [1] was “+ (+ = 1.5 to 5 relative activity over Rd3BB (SEQ ID NO: 13))”. In addition, the “Relative Activity … at pH 9.7” value in data set [2] was “++ (++ = >5 to 10 relative activity over Rd3BB (SEQ ID NO: 13))”. Besides, the “Relative Activity … at pH 3.7” value in data set [3] is recorded as “+ (+ = 1.5 to 5 relative activity over Rd3BB (SEQ ID NO: 13))”.

B3: 543 (protein)
chain: LDNGLARTPTMGWLHWERFMCNLDCQEEPDSCISEKLFMEMAERMVSEGWKDAGYEYLCIDDCWMAPQRDSEGRLQADPQRFPHGIRQLANHVHSKGLKLGIYADVGNKTCAGFPGSFGYYDIDAQTFADWGVDLLKFDGCYCDSLENLADGYKHMSLALNRTGRSIVYSCEWPLYMWPFQKPNYTEIRQYCNHWRNFADIDDSWASIKSILDWTSRNQERIVDVAGPGGWNDPDMLVIGNFGLSWDQQVTQMALWAIMAAPLFMSNDLRHISPQAKALLQMKDVIAINQDPLGKQGYQLRKGDNFEVWERPLSGDAWAVAIINRQEIGGPRSYTIPVASLGKGVACNPACFITQLLPVKRQLGFYNWTSRLKSHINPTGTVLLQLENTMQMSLKDLL
modifications: Synthetic Polypeptide sequence of Variant No. 543 of mature Human GLA
B3: the “Relative Activity of GLA Variants After No Challenge (NC)” value in data set [1] was “+ (+ = 1.5 to 5 relative activity over Rd3BB (SEQ ID NO: 13))”. Besides, the “Relative Activity … at pH 9.7” value in data set [2] is on record as “+ (+ = 1.5 to 5 relative activity over Rd3BB (SEQ ID NO: 13))”. Further, in data set [3], the “Relative Activity … at pH 3.7” value is given as “+ (+ = 1.5 to 5 relative activity over Rd3BB (SEQ ID NO: 13))”.

B4: 542 (protein)
chain: LDNGLARTPTMGWLHWERFMCNLDCQEEPDSCISEKLFMEMAERMVSEGWKDAGYEYLCIDDCWMAPQRDSEGRLQADPQRFPHGIRQLANHVHSKGLKLGIYADVGNKTCAGFPGSFGYYDIDAQTFADWGVDLLKFDGCYCDSLENLADGYKHMSLALNRTGRSIVYSCEWPLYMWPFQKPNYTEIRQYCNHWRNFADIDDSWASIKSILDWTSRNQERIVDVAGPGGWNDPDMLVIGNFGLSWDQQVTQMALWAIMAAPLFMSNDLRHISPQAKALLQGKDVIAINQDPLGKQGYQLRKGDNFEVWERPLSGDAWAVAIINRQEIGGPRSYTIPVASLGKGVACNPACFITQLLPVKRQLGFYNWTSRLKSHINPTGTVLLQLENTMQMSLKDLL
modifications: Synthetic Polypeptide sequence of Variant No. 542 of mature Human GLA
With B4, the “Relative Activity of GLA Variants After No Challenge (NC)” value in data set [1] is given as “+ (+ = 1.5 to 5 relative activity over Rd3BB (SEQ ID NO: 13))”. In addition, the “Relative Activity … at pH 9.7” value in data set [2] is “++ (++ = >5 to 10 relative activity over Rd3BB (SEQ ID NO: 13))”. For the same molecule, the “Relative Activity … at pH 3.7” value in data set [3] is “+ (+ = 1.5 to 5 relative activity over Rd3BB (SEQ ID NO: 13))”.

B5: 544 (protein)
chain: LDNGLARTPTMGWLHWERFMCNLDCQEEPDSCISEKLFMEMAERMVSEGWKDAGYEYLCIDDCWMAPQRDSEGRLQADPQRFPHGIRQLANHVHSKGLKLGIYADVGNKTCAGFPGSFGYYDIDAQTFADWGVDLLKFDGCYCDSLENLADGYKHMSLALNRTGRSIVYSCEWPLYMWPFQKPNYTEIRQYCNHWRNFADIDDSWASIKSILDWTSRNQERIVDVAGPGGWNDPDMLVIGNFGLSWDQQVTQMALWAIMAAPLFMSNDLRHISPQAKALLQVKDVIAINQDPLGKQGYQLRKGDNFEVWERPLSGDAWAVAIINRQEIGGPRSYTIPVASLGKGVACNPACFITQLLPVKRQLGFYNWTSRLKSHINPTGTVLLQLENTMQMSLKDLL
modifications: Synthetic Polypeptide sequence of Variant No. 544 of mature Human GLA
As to B5, the “Relative Activity of GLA Variants After No Challenge (NC)” value in data set [1] is reported as “+ (+ = 1.5 to 5 relative activity over Rd3BB (SEQ ID NO: 13))”. Besides, the “Relative Activity … at pH 9.7” value in data set [2] is “+ (+ = 1.5 to 5 relative activity over Rd3BB (SEQ ID NO: 13))”. Besides, the “Relative Activity … at pH 3.7” value in data set [3] is “+ (+ = 1.5 to 5 relative activity over Rd3BB (SEQ ID NO: 13))”.

B6: 539 (protein)
chain: LDNGLARTPTMGWLHWERFMCNLDCQEEPDSCISEKLFMEMAERMVSEGWKDAGYEYLCIDDCWMAPQRDSEGRLQADPQRFPHGIRQLANHVHSKGLKLGIYADVGNKTCAGFPGSFGYYDIDAQTFADWGVDLLKFDGCYCDSLENLADGYKHMSLALNRTGRSIVYSCEWPLYMWPFQKPNYTEIRQYCNHWRNFADIDDSWASIKSILDWTSRNQERIVDVAGPGGWNDPDMLVIGNFGLSWDQQVTQMALWAIMAAPLFMSNDLRHISPQAKALLQDKDVIHINQDPLGKQGYQLRKGDNFEVWERPLSGDAWAVAIINRQEIGGPRSYTIPVASLGKGVACNPACFITQLLPVKRQLGFYNWTSRLKSHINPTGTVLLQLENTMQMSLKDLL
modifications: Synthetic Polypeptide sequence of Variant No. 539 of mature Human GLA
As for B6, the “Relative Activity of GLA Variants After No Challenge (NC)” value in data set [1] was “+ (+ = 1.5 to 5 relative activity over Rd3BB (SEQ ID NO: 13))”. The “Relative Activity … at pH 9.7” value in data set [2] was “++ (++ = >5 to 10 relative activity over Rd3BB (SEQ ID NO: 13))”. The “Relative Activity … at pH 3.7” value in data set [3] is “+ (+ = 1.5 to 5 relative activity over Rd3BB (SEQ ID NO: 13))”.

B7: 541 (protein)
chain: LDNGLARTPTMGWLHWERFMCNLDCQEEPDSCISEKLFMEMAERMVSEGWKDAGYEYLCIDDCWMAPQRDSEGRLQADPQRFPHGIRQLANHVHSKGLKLGIYADVGNKTCAGFPGSFGYYDIDAQTFADWGVDLLKFDGCYCDSLENLADGYKHMSLALNRTGRSIVYSCEWPLYMWPFQKPNYTEIRQYCNHWRNFADIDDSWASIKSILDWTSRNQERIVDVAGPGGWNDPDMLVIGNFGLSWDQQVTQMALWAIMAAPLFMSNDLRHISPQAKALLQAKDVIAINQDPLGKQGYQLRKGDNFEVWERPLSGDAWAVAIINRQEIGGPRSYTIPVASLGKGVACNPACFITQLLPVKRQLGFYNWTSRLKSHINPTGTVLLQLENTMQMSLKDLL
modifications: Synthetic Polypeptide sequence of Variant No. 541 of mature Human GLA
Turning to B7, the “Relative Activity of GLA Variants After No Challenge (NC)” value in data set [1] is on record as “+ (+ = 1.5 to 5 relative activity over Rd3BB (SEQ ID NO: 13))”. The “Relative Activity … at pH 9.7” value in data set [2] is “++ (++ = >5 to 10 relative activity over Rd3BB (SEQ ID NO: 13))”. In data set [3], the “Relative Activity … at pH 3.7” value is given as “+ (+ = 1.5 to 5 relative activity over Rd3BB (SEQ ID NO: 13))”.

B8: 516 (protein)
chain: LENGLARTPTMGWLHWERFMCNLDCQEEPDSCISEKLFMEMAERMVSEGWKDAGYEYLCIDDCWMAPQRDSEGRLQADPQRFPHGIRQLANHVHSKGLKLGIYADVGNKTCAGFPGSFGYYDIDAQTFADWGVDLLKFDGCYCDSLENLADGYKHMSLALNRTGRSIVYSCEWPLYMWPFQKPNYTEIRQYCNHWRNFADIDDSWASIKSILDWTSRNQERIVDVAGPGGWNDPDMLVIGNFGLSWDQQVTQMALWAIMAAPLFMSNDLRHISPQAKALLQDKDVIAINQDPLGKQGYQLRKGDNFEVWERPLSGDAWAVAIINRGEIGGPRSYTIPVASLGKGVACNPACFITQLLPVKRQLGFYNWTSRLKSHINPTGTVLLQLENTMQMSLKDLL
modifications: Synthetic Polypeptide sequence of Variant No. 516 of mature Human GLA
Take B8: the “Relative Activity of GLA Variants After No Challenge (NC)” value in data set [1] is given as “+ (+ = 1.5 to 5 relative activity over Rd3BB (SEQ ID NO: 13))”. The “Relative Activity … at pH 9.7” value in data set [2] is recorded as “+ (+ = 1.5 to 5 relative activity over Rd3BB (SEQ ID NO: 13))”. Further, in data set [3], the “Relative Activity … at pH 3.7” value was “+++ (+++ = >10 relative activity over Rd3BB (SEQ ID NO: 13))”.
